B1: OR4K15 (parent)
chain: GUUAACGGUCAUAGGCCAUGGAAACUAGGAGCACCAUUUCGCUGCCAGUGAAGAAAUGAACAAAGAAAAUCUGGGCCAGGCAGGCAUCAAAAGAAAUAGUCUUGCGCUCAACCAGAAAGUCUGUAAUCAUUUUAAGGGUA

These results are taken from the RNAGym collection of RNA variant scans (doi:10.7554/elife.90254).

Variants of B1 are the subject of this data set. In words: self-cleavage, relative activity (ratio to wild type); higher = more cleavage; in vitro, sequencing; the parent is a self-cleaving ribozyme.
Turning to U130A U139A, the self-cleavage amounted to 0.89. Then U12G A86G, with 0.92; and U37C G83A, with 2.15; and G41U A94U, with 1.48. As for A4G U139C, the figure is 1.21. Consider A23G U26A, for which the self-cleavage worked out at 1.22. As for C85U A134G, the figure is 2.28; as for U2C A78U, 0.09. Then A60G A134G, with 0.69. As for G50A C71U, the figure is 0.42; as for A22U A23U, 1.59; as for U26C A33G, 0.84. Consider A52U A66U, for which the self-cleavage is 1.48.

On to U72A A129U, for which the self-cleavage was 0.23. On to C16U U39G, for which the self-cleavage is 1.27. As for A22G A47U, the figure is 0.62. Then U39A A47G, with 0.44; and A114U A140G, with 0.08. As for A94G U100C, the figure is 2.37; as for U43C A90G, 0.97. As to U26C A94G, the self-cleavage was 0.95.

A89U A98G: the self-cleavage was 0.66. A68G U103C: the self-cleavage was 0.96. As for A54G U87A, the figure is 1.79. As for A30G A36G, the figure is 1.44; as for A78U A114U, 0.03; as for C32A U39C, 1.42. In the case of A30G U57G, the self-cleavage is 1.24. With A69G C105G, the self-cleavage came to 0.02.

As for A22G G48U, the self-cleavage was found to be 0.9. Then A95U U122C, with 1.44. Then U131A G138C, with 1.83. As for U72C U127C, the figure is 0.07.

Take A22G U97A: the self-cleavage amounted to 0.96. On to A68U A82G, for which the self-cleavage is 0.75. For U49C G80A, the self-cleavage turned out to be 0.21. Then G8A A98G, with 1.78. Then C42G U108C, with 0.01; and U72C G79A, with 0.32; and A47U A117G, with 1.25. Then U43A A47G, with 1.12; and U3C A24G, with 0.9; and A82G U139A, with 0.23. With A52G A82G, the self-cleavage was found to be 0.19. As for U3C A98G, the figure is 0.6. As for A66U A125G, the self-cleavage was 0.25. On to U38A U87A, for which the self-cleavage stood at 2.41. Then U38C A69G, with 0.88; and C40U G99A, with 0.32. In the case of G73C, the self-cleavage amounted to 0.23. On to A68U U102A, for which the self-cleavage was 1.15.

In the case of A30G U38G, the self-cleavage is 1.4. As for A92C U103C, the figure is 0.93.

In the case of A66G U108A, the self-cleavage is 0.02. As for A59G A66G, the figure is 1.15; as for A64G G75U, 0.12. Consider A52U U124G, for which the self-cleavage is 0.84.

For the variant A92G U103G, the self-cleavage is 0.03.

Turning to U103A A118C, the self-cleavage was found to be 0.53. Then U9C U43G, with 2.16; and A54G U97C, with 1.37; and A82G U100C, with 1.36. Then U97A A98U, with 2.29; and U38A G75C, with 0.03. Then A18G U37C, with 1.04. Turning to U102C U108C, the self-cleavage is 0.01. Then G14U U102A, with 0.36; and U3C U87C, with 0.63; and U127A U132C, with 1.55. As for C105U A114G, the figure is 0.07. Then A33U A92G, with 1.86; and A13G A69G, with 0.92. Consider A51G U100G, for which the self-cleavage was found to be 1.63. As for A5G G58A, the figure is 1.07.

For the variant A91G U130C, the self-cleavage worked out at 0.54. In the case of G31A A47G, the self-cleavage stood at 1. Then A30U A96G, with 0.89; and U124C U132G, with 0.76; and A59U U100G, with 2.13. Then A13G A66G, with 0.55; and U70G U102C, with 0.64.

A22G A92G: the self-cleavage worked out at 1.08. Take A89G U124A: the self-cleavage came to 1.38.

On to G28A U70A, for which the self-cleavage was determined as 1.02. Then C71A A86G, with 0.28; and U108C A111G, with 0.01. As for A62G A96G, the figure is 1.53.

Consider U100C G137A, for which the self-cleavage was determined as 2.22. Then A36C A86U, with 2.2; and A89G A140C, with 0.99.

In the case of A24G A54U, the self-cleavage turned out to be 1.48. Then A64G A134G, with 1.41. Then U102C U103A, with 0.2; and A67U A114G, with 0.66. On to U3C U120A, for which the self-cleavage is 1.72. Then U12G U37C, with 1.48; and G7U U122A, with 1.64. As for A27G A52G, the figure is 1.44; as for G58U A67U, 2.46.

For the variant A96G A116U, the self-cleavage came out at 0.24.

On to A55C U87C, for which the self-cleavage is 0.47. A54G G74U: the self-cleavage is 0.11.

Take U19G U100C: the self-cleavage stood at 2.09. On to A30G A52U, for which the self-cleavage was found to be 1.62. As for A23G U122A, the figure is 1.72; as for U43C G58A, 0.64. Then A13G A56G, with 1.04; and A27C A78C, with 0.25; and A67U U122A, with 1.36. With A18U A51U, the self-cleavage is 1.24. Regarding A64G A135U, the self-cleavage is 1.28. As for C16A U38C, the figure is 0.92; as for U38C G83A, 2.15. As for G50U U100G, the figure is 1.34. As for U37C A89U, the figure is 2.23; as for U19C C112A, 0.02. A68G U132A: the self-cleavage was determined as 1.27.

As to A78U A92G, the self-cleavage is 0.29. As for A5G A24C, the figure is 0.68; as for A126G A140G, 1.28; as for A98G G99U, 1.42.

U57C U130C: the self-cleavage turned out to be 0.78. Regarding A86G U124C, the self-cleavage stood at 0.3. As for A51G A91G, the figure is 0.5. Then U9A A47U, with 0.91; and C16A A22G, with 1.29. As for U124C A125U, the figure is 1.37. In the case of U87C U133C, the self-cleavage was found to be 1.4. Then A116G U131A, with 0.25.

On to A22G A116G, for which the self-cleavage came to 0.57. Then U49A U132C, with 1.09.

Regarding G41A U87C, the self-cleavage is 0.63.

On to A78G A90C, for which the self-cleavage came out at 0.12. Then A11G A92U, with 1.26; and U3C C77U, with 0.69; and U2A A78C, with 0.66. Then C25U A47U, with 1.35; and A30U U57C, with 1.31. Regarding C6U A118G, the self-cleavage is 1.06. Turning to A89U A125G, the self-cleavage was determined as 0.77. As for U49G A62U, the figure is 0.74. As for A56G U70C, the figure is 0.95; as for U70C A90G, 0.83; as for A22U G99A, 1.39. Then A62G A94G, with 1.52; and A47C A111U, with 0.07. As to U38C A110U, the self-cleavage stood at 1.46. Then U102A U103A, with 0.12.

As for A5G A69G, the self-cleavage turned out to be 1.54. Then A33U C105U, with 0.49; and A52U U131C, with 0.4; and U38C A68U, with 2.15. As for G41A A96G, the figure is 1.7; as for U37A U130C, 0.61. As for A24G A59C, the figure is 0; as for U108G A135G, 0.01.

As for C40G, the self-cleavage turned out to be 1.62.

On to G28A A64G, for which the self-cleavage was 1.4. As for A22U A140G, the figure is 1.41. As for A94G A95U, the figure is 2.66; as for A55U U130C, 1.13. U72A A96G: the self-cleavage was determined as 0.2. With C16G A47U, the self-cleavage worked out at 0.8. Then C40U U87C, with 1.44; and C17U U124A, with 1.1; and A54U U133A, with 1.49. Then U49C U124A, with 0.48.
